In patent publication US20190284258A1, “HAEMADIPSA SYLVESTRIS ANTITHROMBOTIC PEPTIDE SYLVESTIN AND USE THEREOF” (priority 2016, published 2019):

Biological target: FXIIa
Test: enzyme inhibition kinetics, chromogenic substrate, OD 405 nm

Chain of FXIIa (P00748 20-372, chain 1 of 2): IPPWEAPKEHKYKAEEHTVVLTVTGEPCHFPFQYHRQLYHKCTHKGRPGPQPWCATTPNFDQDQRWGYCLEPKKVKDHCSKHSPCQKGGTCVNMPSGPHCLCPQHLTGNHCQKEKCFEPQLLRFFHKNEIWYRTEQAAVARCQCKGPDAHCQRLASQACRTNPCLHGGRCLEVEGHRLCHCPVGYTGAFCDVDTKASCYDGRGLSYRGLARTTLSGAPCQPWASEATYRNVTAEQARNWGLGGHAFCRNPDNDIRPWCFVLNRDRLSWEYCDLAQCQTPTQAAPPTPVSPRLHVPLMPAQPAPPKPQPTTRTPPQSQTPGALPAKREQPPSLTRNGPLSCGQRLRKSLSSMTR
Chain of FXIIa (P00748 373-615, chain 2 of 2): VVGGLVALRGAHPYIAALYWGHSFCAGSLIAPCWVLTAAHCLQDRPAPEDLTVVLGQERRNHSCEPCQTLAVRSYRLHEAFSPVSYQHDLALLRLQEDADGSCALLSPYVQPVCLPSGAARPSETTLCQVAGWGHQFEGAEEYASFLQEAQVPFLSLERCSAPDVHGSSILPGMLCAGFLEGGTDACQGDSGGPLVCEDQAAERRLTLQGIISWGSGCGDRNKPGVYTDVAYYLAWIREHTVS

## Haemadipsa sylvestris antithrombotic peptide Sylvestin
  Ki: 2900 nM
